{"source": "paper PMC9001736", "about": "(Scientific Reports, 2022)", "binders": {"B1": {"name": "histone H3_(1–12) peptide (aa 1–12 of H3) (peptide, UniProt P68431 2-13, looked up)", "peptide": "ARTKQTARKSTG", "notes": "histone H3, aa 1–12; also called H3 peptide"}}, "key": {"[1]": {"target": "T1, ZZ domain of HERC2 (HERC2ZZ, aa 2702–2755 with additional tryptophan at the C-terminus) (human, UniProt O95714 2702-2755)", "T1 construct": "E3 ubiquitin ligase HERC2, human, ZZ domain, aa 2702–2755 of the 4834 residue protein; additional tryptophan residue introduced at the C-terminus of HERC2ZZ to quantify the protein and for the tryptophan fluorescence assay; 15N-labelled in the NMR titrations where it is the observed protein; also called HERCZZ; WT HERC2ZZ; source: E. coli BL21 (DE3) RIL, purified (Ni-NTA, ULP1 cleavage; unlabeled …)", "T1 chain": "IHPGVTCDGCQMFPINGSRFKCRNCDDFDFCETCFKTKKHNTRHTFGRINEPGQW", "test": "NMR titration; 1H,15N HSQC of 0.1–0.2 mM 15N-labelled HERC2 protein titrated with unlabeled protein or peptide; 298 K; 20 mM Tris (pH 6.8) or 20 mM PBS (pH 6.5), 150 mM NaCl, 2 mM DTT, 10% D2O", "details": "both partners purified"}, "[2]": {"target": "T2, HERC2_(ZZ-DOC) (aa 2702–2914), construct encompassing both ZZ and DOC domains (human, UniProt O95714 2702-2914)", "T2 construct": "E3 ubiquitin ligase HERC2, human, ZZ and DOC domains, aa 2702–2914; 15N-labelled for NMR; also called linked HERC2_(ZZ-DOC); source: E. coli BL21 (DE3) RIL, purified (Ni-NTA, ULP1 cleavage); not shown: His8x-SUMO, N-terminal, cleaved", "test": "NMR titration; 1H,15N HSQC of 0.1–0.2 mM 15N-labelled HERC2 protein titrated with unlabeled protein or peptide; 298 K; 20 mM Tris (pH 6.8) or 20 mM PBS (pH 6.5), 150 mM NaCl, 2 mM DTT, 10% D2O", "details": "both partners purified"}}}
{"binder": "B1", "values": [{"measurement": "binding result", "setting": "[1]", "value": "binds"}, {"measurement": "binding result", "setting": "[2]", "value": "binds"}]}
